# ± gives the uncertainty stated by the source.
# B1: Triacylglycerol hydrolase DDHD2, residues 389 to 447; numbered along this chain, O94830 (parent)
# chain: TLEEDLKKLQLSEFFDIFEKEKVDKEALALCTDRDLQEIGIPLGPRKKILNYFSTRKNS
# Variants of: B1
# Test: abundance fitness (aPCA) (normalised: wild type 0, dead -1); higher = more abundant; growth selection in yeast, the domain comes from the species named
# Conditions: Homo sapiens
row,Variant,abundance fitness
1,Y52K,-0.3 ± 0.094
2,Y52P,-0.313 ± 0.12
3,I41S,-0.168 ± 0.08
4,I41N,-0.837 ± 0.21
5,I41C,-0.425 ± 0.12
6,I41R,-0.289 ± 0.066
7,I41L,0.069 ± 0.062
8,I41A,-0.433 ± 0.087
9,I41Q,-0.144 ± 0.1
10,I41P,-0.417 ± 0.15
11,I41V,0.003 ± 0.063
12,I41D,-0.384 ± 0.15
13,D5C,-0.033 ± 0.1
14,D5M,-0.194 ± 0.076
15,D5S,-0.016 ± 0.062
16,D5E,0.123 ± 0.058
17,D5I,-0.144 ± 0.11
18,D5K,-0.42 ± 0.085
19,D5F,0.032 ± 0.1
20,D5Y,-0.614 ± 0.12
21,K47G,0.101 ± 0.061
22,K47A,0.296 ± 0.067
23,K47M,0.58 ± 0.11
24,K47L,-0.087 ± 0.071

row,Variant,abundance fitness
1,K47H,-0.376 ± 0.11
2,K47I,0.193 ± 0.11
3,L30M,0.483 ± 0.085
4,L30C,0.593 ± 0.078
5,L30K,0.642 ± 0.083
6,L30T,0.556 ± 0.081
7,L30W,0.263 ± 0.081
8,L30R,0.581 ± 0.061
9,L30V,0.329 ± 0.075
10,R34Q,0.059 ± 0.1
11,R34C,0.011 ± 0.093
12,R34W,-0.051 ± 0.092
13,R34P,-0.266 ± 0.1
14,F14I,-0.365 ± 0.24
15,F14P,-0.581 ± 0.097
16,F14W,-0.179 ± 0.076
17,F14E,-0.592 ± 0.11
18,F14G,-0.775 ± 0.094
19,F14T,-0.521 ± 0.13
20,F14Y,-0.506 ± 0.28
21,F14H,-0.599 ± 0.2
22,F14Q,-0.205 ± 0.084
23,C31N,-0.304 ± 0.11
24,C31M,0.977 ± 0.084

row,Variant,abundance fitness
1,C31Y,0.626 ± 0.11
2,C31T,0.145 ± 0.1
3,C31W,0.44 ± 0.08
4,C31L,0.526 ± 0.065
5,C31P,-0.196 ± 0.11
6,E13M,-0.135 ± 0.17
7,E13Y,-0.012 ± 0.22
8,E13S,-0.252 ± 0.1
9,E13A,-0.036 ± 0.089
10,E13V,-0.109 ± 0.088
11,L50K,-0.218 ± 0.1
12,L50A,-0.415 ± 0.089
13,L50N,-0.483 ± 0.17
14,L50P,-0.401 ± 0.11
15,L50H,-0.087 ± 0.14
16,L50C,-0.215 ± 0.13
17,L50R,-0.247 ± 0.06
18,K22W,-0.729 ± 0.13
19,K22T,-0.16 ± 0.094
20,K22M,-0.103 ± 0.095
21,K22D,0.194 ± 0.11
22,K22R,-0.193 ± 0.073
23,K22L,-0.172 ± 0.064
24,K22C,-0.083 ± 0.09

row,Variant,abundance fitness
1,K22G,0.455 ± 0.067
2,K22S,0.107 ± 0.075
3,K22Y,0.089 ± 0.1
4,I39Q,-0.146 ± 0.086
5,I39M,0.764 ± 0.072
6,I39V,-0.052 ± 0.07
7,I39F,0.448 ± 0.12
8,I39K,0.196 ± 0.087
9,E3L,-0.145 ± 0.058
10,E3F,-0.209 ± 0.1
11,E3N,-0.354 ± 0.12
12,E3M,-0.002 ± 0.089
13,E3Q,-0.251 ± 0.078
14,E3T,-0.705 ± 0.089
15,E3Y,-0.162 ± 0.1
16,E3P,-0.817 ± 0.088
17,S59M,-0.068 ± 0.2
18,S59Y,-0.109 ± 0.18
19,S59E,0.075 ± 0.18
20,S59V,-0.153 ± 0.12
21,S59R,-0.352 ± 0.11
22,S59G,-0.151 ± 0.11
23,R46L,-0.744 ± 0.088
24,R46T,-0.224 ± 0.095

row,Variant,abundance fitness
1,R46Y,-0.848 ± 0.17
2,R46N,-0.152 ± 0.11
3,R46E,-0.217 ± 0.1
4,F15R,-0.077 ± 0.063
5,F15D,-0.465 ± 0.2
6,F15N,0.05 ± 0.21
7,F15V,-0.097 ± 0.064
8,F15C,-0.035 ± 0.17
9,F15H,-0.084 ± 0.18
10,F15P,-0.537 ± 0.093
11,F15Q,-0.103 ± 0.086
12,A27T,0.057 ± 0.091
13,A27Q,0.475 ± 0.09
14,A27F,0.708 ± 0.11
15,A27D,0.437 ± 0.11
16,A27M,0.639 ± 0.094
17,E21W,0.299 ± 0.072
18,E21N,0.428 ± 0.13
19,E21D,-0.275 ± 0.12
20,E21A,0.599 ± 0.07
21,E21I,0.245 ± 0.1
22,E21S,0.453 ± 0.064
23,Q10F,-0.421 ± 0.13
24,Q10L,-0.52 ± 0.059

row,Variant,abundance fitness
1,Q10V,-0.667 ± 0.055
2,Q10A,-0.22 ± 0.05
3,Q10D,0.069 ± 0.099
4,D33V,-0.693 ± 0.083
5,D33P,-0.659 ± 0.11
6,D33H,-0.283 ± 0.12
7,D33K,-0.489 ± 0.1
8,D33Y,-0.498 ± 0.12
9,D33G,-0.199 ± 0.069
10,D33T,-0.238 ± 0.093
11,D33L,-0.339 ± 0.069
12,Q37N,-0.305 ± 0.14
13,Q37L,-0.343 ± 0.074
14,Q37S,-0.178 ± 0.07
15,Q37G,0.049 ± 0.064
16,D24H,-0.587 ± 0.26
17,D24N,0.155 ± 0.12
18,D24E,-0.023 ± 0.12
19,D24A,0.026 ± 0.1
20,D24K,-0.115 ± 0.097
21,S54H,-0.208 ± 0.14
22,S54R,-0.122 ± 0.064
23,S54P,-0.309 ± 0.1
24,S54T,-0.097 ± 0.078

row,Variant,abundance fitness
1,S54G,-0.113 ± 0.063
2,R56H,-0.207 ± 0.12
3,R56T,0.033 ± 0.081
4,R56F,-0.074 ± 0.11
5,R56E,0.123 ± 0.082
6,E4A,-0.286 ± 0.067
7,E4V,-0.629 ± 0.072
8,E4L,-0.371 ± 0.059
9,E4Q,-0.103 ± 0.072
10,E4P,-0.996 ± 0.11
11,E4S,-0.332 ± 0.061
12,G40C,-0.573 ± 0.14
13,G40E,-0.556 ± 0.1
14,G40R,-0.411 ± 0.082
15,G40Y,-1.2 ± 0.27
16,G40D,-0.572 ± 0.11
17,G40F,-0.865 ± 0.24
18,N58H,-0.377 ± 0.13
19,N58W,-0.373 ± 0.14
20,N58C,-0.252 ± 0.15
21,N58Y,-0.08 ± 0.14
22,N58Q,-0.236 ± 0.12
23,N58A,-0.193 ± 0.097
